According to patent publication US20220241354A1, “COMPOSITION” (MORINAGA MILK INDUSTRY CO., LTD., priority 2019, published 2022):

Assays:
[1] = system: Bifidobacterium breve M-16V; assay: Growth promoting effect on Bifidobacterium breve M-16V (turbidity at 600 nm after anaerobic culture); assay type: cell-based; details: 2′-FL 0.000 mass %, glucose-free MRS, 37° C., 24 hours, n = 4
Method: (§1) DifcoMRS (BD) was dissolved in purified water as described in a package insert and sterilized at 115° C. for 15 minutes. L-Cysteine hydrochloride (Wako) was dissolved in purified water, filtered and sterilized, and was aseptically added to MRS medium cooled to room temperature after sterilization to have a final concentration of 0.05% by mass.
as §1, with “A reagent” for “DifcoMRS (BD)”, “with the composition shown” for “as described”, “Table 1” for “a package insert”
Human milk oligosaccharide (2′-fucosyllactose (2′-FL) (Carbosynth)) and lactoferrin (produced by Morinaga Milk Industry Co., Ltd., iron content 15.8 mg/100 g) were dissolved in purified water, respectively. They were filtered and sterilized after dissolution.
(§2) 150 μL of a pre-culture solution of Bifidobacterium breve M-16V was added to 3 mL of MRS medium prepared in (1) (i), and was anaerobically cultured at 37° C. for 16 hours. After culturing, the cells were separated from the culture solution by centrifuging at 1500×g for 5 minutes. The culture solution was removed, and the cells were resuspended in 3 mL of glucose-free MRS medium prepared in (1) (ii).
(§3) The pre-culture solution prepared in (2) was added to the glucose-free MRS medium prepared in (1) (ii) to have a final concentration of 1 v/v %. Further, the 2′-fucosyllactose (2′-FL) solution and the lactoferrin solution prepared in (1) (iii) were respectively added to have the final concentrations shown in Table 2, and were dispensed into a 96-well plate at 200 μL/well.
(§4) Then, the cells were anaerobically cultured at 37° C. for 24 hours. After culturing, turbidity was measured at a wavelength of 600 nm using a microplate reader (Corona Electric) to evaluate the growth of bifidobacteria.

[2] = system: Bifidobacterium infantis M-63; assay: Growth promoting effect on Bifidobacterium infantis M-63 (turbidity at 600 nm); assay type: cell-based; details: 2′-FL 0.000 mass %, 37° C., 24 hours, n = 12
Method: as §2, §3, §4
The same operation as in Example 1 was carried out except that the bifidobacteria were replaced with Bifidobacterium infantis M-63, and the growth was evaluated.

B1: lactoferrin (protein, UniProt P24627 20-708, looked up)
Lactotransferrin: APRKNVRWCTISQPEWFKCRRWQWRMKKLGAPSITCVRRAFALECIRAIAEKKADAVTLDGGMVFEAGRDPYKLRPVAAEIYGTKESPQTHYYAVAVVKKGSNFQLDQLQGRKSCHTGLGRSAGWIIPMGILRPYLSWTESLEPLQGAVAKFFSASCVPCIDRQAYPNLCQLCKGEGENQCACSSREPYFGYSGAFKCLQDGAGDVAFVKETTVFENLPEKADRDQYELLCLNNSRAPVDAFKECHLAQVPSHAVVARSVDGKEDLIWKLLSKAQEKFGKNKSRSFQLFGSPPGQRDLLFKDSALGFLRIPSKVDSALYLGSRYLTTLKNLRETAEEVKARYTRVVWCAVGPEEQKKCQQWSQQSGQNVTCATASTTDDCIVLVLKGEADALNLDGGYIYTAGKCGLVPVLAENRKSSKHSSLDCVLRPTEGYLAVAVVKKANEGLTWNSLKDKKSCHTAVDRTAGWNIPMGLIVNQTGSCAFDEFFSQSCAPGADPKSRLCALCAGDDQGLDKCVPNSKEKYYGYTGAFRCLAEDVGDVAFVKNDTVWENTNGESTADWAKNLNREDFRLLCLDGTRKPVTEAQSCHLAVAPNHAVVSRSDRAAHVKQVLLHQQALFGKNGKNCPDKFCLFKSETKNLLFNDNTECLAKLGGRPTYEEYLGTEYVTAIANLKKCSTSPLLEACAFLTR
notes: lactoferrin produced by Morinaga Milk Industry Co., Ltd., iron content 15.8 mg/100 g
**Q.** For B1, which OD600 ([1]; lactoferrin 0.031 mg/mL) is on record?
**A.** 0.072

**Q.** And the OD600 ([1]; lactoferrin 0.063 mg/mL)?
**A.** 0.074

**Q.** And the OD600 ([1]; lactoferrin 0.125 mg/mL)?
**A.** 0.073

**Q.** What about the OD600 ([1]; lactoferrin 0.250 mg/mL) of the same molecule?
**A.** 0.074

**Q.** And the OD600 ([1]; lactoferrin 0.500 mg/mL)?
**A.** 0.075

**Q.** What about the OD600 ([1]; lactoferrin 1.000 mg/mL) of the same molecule?
**A.** 0.078

**Q.** What about the OD600 ([2]; lactoferrin 0.500 mg/mL) of the same molecule?
**A.** 0.093

**Q.** What about the OD600 ([2]; lactoferrin 1.000 mg/mL) of the same molecule?
**A.** 0.101
